{
  "source": "patent US7341836B2",
  "about": "“Modified cyclic nucleotide gated ion channels” (The Regents of the University of Colorado, priority 2001, dated 2008)",
  "molecules": {"B1": {"name": "E583M: modified rat olfactory cyclic nucleotide-gated ion channel containing the E583M mutation, SEQ ID NO:5 (protein, listed as Rattus norvegicus)", "chain": "MMTEKSNGVKSSPANNHNHHPPPSIKANGKDDHRAGSRPQSVAADDDTSPELQRLAEMDTPRRGRGGFQRIVRLVGVIRDWANKNFREEEPRPDSFLERFRGPELQTVTTHQGDDKGGKDGEGKGTKKKFELFVLDPAGDWYYRWLFVIAMPVLYNWCLLVARACFSDLQRNYFVVWLVLDYFSDTVYIADLIIRLRTGFLEQGLLVKDPKKLRDNYIHTLQFKLDVASIIPTDLIYFAVGIHSPEVRFNRLLHFARMFEFFDRTETRTSYPNIFRISNLVLYILVIIHWNACIYYVISKSIGFGVDTWVYPNITDPEYGYLAREYIYCLYWSTLTLTTIGETPPPVKDEEYLFVIFDFLIGVLIFATIVGNVGSMISNMNATRAEFQAKIDAVKHYMQFRKVSKDMEAKVIKWFDYLWTNKKTVDEREVLKNLPAKLRAEIAINVHLSTLKKVRIFQDCEAGLLVELVLKLRPQVFSPGDYICRKGDIGKEMYIIKEGKLAVVADDGVTQYALLSAGSCFGEISILNIKGSKMGNRRTANIRSLGYSDLFCLSKDDLMEAVTEYPDAKKVLEERGREILMKMGLLDENEVAASMEVDVQEKLEQLETNMDTLYTRFARLLAEYTGAQQKLKQRITVLETKMKQNHEDDYLSDGINTPEPTAAE"}, "B2": {"name": "WT: wild-type rat olfactory cyclic nucleotide gated channel α subunit, amino acid sequence SEQ ID NO:8 (protein, listed as Rattus norvegicus)", "chain": "B1 chain with M583E"}},
  "key": {"[1]": {"test_system": "PDE activity in GH4C1 cells", "experiment": "Effect of PDE inhibitors, forskolin and VIP on cAMP levels (Ca2+ influx through CNG channels)", "type": "cell-based, rat", "conditions": "C460W/E583M channels", "protocol": "To further test the utility of this approach, PDE activity in excitable GH4C1 pituitary cells was examined. In all of the experiments shown (See, FIGS. 13-14, and Table 2), 1 μM nimodipine was added at time zero to block Ca^2+ influx though voltage-gated Ca^2+ channels (triggered by membrane depolarization due to Ca^2+ and Na^+ influx through CNG channels). […] FIGS. 13 and 14 each depict experiments done on a single batch of cells. As before, similar results were obtained on three other batches. In the experiments that produced the data shown in Table 2, cAMP concentrations were monitored using Ca^2+ influx through C460W/E583M channels. […] Either 100 μM IBMX or vehicle (-IBMX; control) were added at time zero. Then, 50 μM forskolin were added at 180 seconds d(ΔF/F0)/dt, which is proportional to the Ca^2+ influx rate, was estimated as described in the Examples. Data are provided as mean±standard error. IBMX or vehicle was added at 60 seconds (first arrow in FIG. 13). Either 10 μM forskolin or 100 nM VIP were added at 240 seconds (second arrow in FIG. 13). In the absence of IBMX, large forskolin or VIP-induced increases in Ca^2+ influx were observed. […] This level of basal AC activity was quite different from that observed in HEK-293 cells (See, FIGS. 9 and 10). 1 μM nimodipine was added at time 0 to block endogenous voltage-gated Ca^2+ channels.\nTo identify the PDE family or families that regulate the local cAMP concentration in GH4C1 cells, cAMP accumulation was monitored in the presence and absence of PDE inhibitors (See, Table 2). Again, the high cAMP affinity C460W/E583M channels were used. PDE inhibitors were added at 60 s. Although the addition of IBMX alone triggered Ca^2+ influx, 10 μM forskolin were added at 240 s as a positive control for CNG channel activity. […] This PDE is likely to have a low Km for cAMP because it is capable of regulating cAMP at concentrations too low for the WT or Δ61-90/C460W/E583M channels to detect. Thus, it is contemplated that a Ca^2+-CaM stimulated PDE (type I) is primarily responsible for controlling basal cAMP signals in GH4C1 cells.\nIn addition, PDE activity was monitored using Δ61-90/C460W/E583M channels to detect changes in cAMP concentration (See, FIG. 14). PDE inhibitors and forskolin were added as described above. With this construct, it was not possible to observe changes in cAMP concentration due to inhibition of PDE activity alone. […] Inhibitors specific to other PDE types had no effect on the forskolin-induced Ca^2+ influx (data not shown). […] It is contemplated that Ca^2+ influx through the C460W/E583M channels was saturated at cAMP concentrations below the Km for this PDE. Thus, it is contemplated that there are two different PDE types that regulate local cAMP signals in GH4C1 cells: a low Km, 8-methoxymethyl-IBMX sensitive PDE (type I); and a high Km, RO-20-1724-, rolipram-sensitive PDE (type IV).\nGH4C1 rat pituitary cells (ATCC) were maintained in 13 mL Ham's F-10 medium (Life Technologies) supplemented with 14.3 mM NaHCO3, 15% donor horse serum (Gemini), and 2.5% fetal bovine serum, pH 6.8, in 75 cm^2 flasks at 37° C. in a humidified atmosphere of 95% air and 5% CO2. Cells were split weekly (1:4) and washed with fresh medium twice weekly. Cells were plated at ˜60% confluence in 100 mm culture dishes twenty-four hours prior to infection with the CNG-channel-encoding adenovirus constructs (multiplicity of infection=50 plaque forming units per cell). Forty-eight hours post-infection cells were detached, resuspended in serum-containing medium, and assayed within 12 hours.\nIn this Example, experiments conducted to examine the response of excitable GH4C1 pituitary cells to stimulation by either forskolin or the hormone vasoactive intestinal peptide (VIP), in the presence of absence of PDE inhibitors are described. […]"}, "PDE III": {"test_system": "PDE III", "conditions": "cited from earlier work"}, "[2]": {"test_system": "HEK-293 cells expressing CNG channels", "experiment": "Forskolin-induced cAMP accumulation monitored by Ca2+ influx (fura-2) through expressed CNG channels", "type": "cell-based, human", "protocol": "Next, experiments were conducted to assess the ability of each channel construct to detect increases in local cAMP concentration. Changes in cAMP concentration were detected using fura-2 to monitor Ca^2+ influx through CNG channels, as described in the Examples. Ca^2+ influx induced by different concentrations of forskolin, an AC activator, in the presence of 100 μM IBMX, a nonselective PDE inhibitor was measured. This approach allowed comparisons to be made between the cAMP sensitivities of the different channels to changes in cAMP, regardless of variations in expression levels between experiments. In HEK-293 cells expressing the WT channel, addition of forskolin was followed by a brief delay and an increase in Ca^2+ influx (See, FIG. 7, Panel A). The delay decreased and the rate of Ca^2+ influx increased in a dose-dependent manner. Neither effect was saturated at 50 μM forskolin. In cells expressing the E583M channel, addition of forskolin was also followed by a brief delay and an increase in Ca^2+ influx (FIG. 7, Panel B). As with the WT channel, the delay and the initial rate of Ca^2+ influx were dose-dependent. […] In cells expressing the Δ61-90/C460W/E583M channel, addition of forskolin caused similar increases in Ca^2+ influx as the E583M channel, including saturation of the delay and rate of influx at 20 μM (compare FIG. 7, Panel B with FIG. 7, Panel D). The increased response of the modified channels to forskolin treatment is consistent with the apparent cAMP affinities measured in excised patches in the absence of Ca^2+-CaM (C460W/E583M>E583M˜Δ61-90/C460W/E583>WT channels). There are several factors that may have contributed to the apparent lack of a Ca^2+-CaM effect on the channels.\nBriefly, HEK-293 were maintained in MEM (Life Technologies Inc.) supplemented with 26.2 mM NaHCO3, 10% (v/v) fetal bovine serum (Gemini), penicillin (50 μg/mL), and streptomycin ([…]), pH 7.0, at 37° C. in a humidified atmosphere of 95% air and 5% CO2. Cells were plated at ˜60% confluence in 100 mm culture dishes twenty-four hours prior to infection with the CNG-channel-encoding adenovirus constructs (multiplicity of infection=10 plaque forming units per cell). […] Twenty-four hours post-infection cells were detached with phosphate-buffered saline containing 0.03% EDTA, resuspended in serum-containing medium, and assayed within 12 hours."}, "[3]": {"test_system": "rat olfactory CNG channel α subunit", "experiment": "Excised inside-out patch recordings, cyclic nucleotide dose-response of CNG channel constructs", "type": "biochemical", "conditions": "for Imax^cGMP/Imax^cAMP: current at saturating cGMP divided by current at saturating cAMP", "protocol": "As described in greater detail herein, the effects of modifications to CNG channels were assessed using the Hill equation, I/Imax=[cNMP]^N/([cNMP]^N+K1/2^N), where I/Imax is the fraction of maximal current, cNMP represents cyclic nucleotide, K1/2 is the concentration that gives half-maximal current, and N is the Hill coefficient, an index of cooperativity. I/Imax^cGMP/Imax^cAMP is the current induced by saturating cGMP divided by the current induced by saturating cAMP. Data (mean±standard deviation of three experiments) were obtained from excised membrane patches using standard patch clamp techniques.\nTo assess the cyclic nucleotide sensitivity of different CNG channel constructs, excised, inside-out patch recordings were made at room temperature (20-21° C.) using an Axopatch-200A patch clamp amplifier (Axon Instruments Inc.). Pipettes were pulled from borosilicate glass and heat polished. Pipettes were lowered onto the cells and gigaohm seals were formed. Patches were excised by shearing cells from the pipette with a jet of liquid. Ionic currents were elicited by 250 ms pulses to membrane potentials of +50 and −50 mV from a holding potential of 0 mV. Current records were sampled at five times the filter setting and stored on an IBM compatible computer. Records were corrected for errors due to series resistance (pipette resistance was 4.1 ±0.1 MΩ). Both the pipette and bath solutions contained (mM): 130 NaCl, 2 HEPES, 0.02 EDTA, and 1 EGTA, pH 7.6. Cyclic nucleotide-induced currents were obtained from the difference between currents in the presence and absence of cyclic nucleotides. Dose response curves for cAMP and cGMP were obtained at +50 and −50 mV in the same patch. The effects of the modifications were assessed using the Hill equation, I/Imax=[cNMP]^N/([cNMP]^N+K1/2^N), where I/Imax is the fraction of maximal current, cNMP represents cyclic nucleotide, K1/2 is the concentration that gives half-maximal current, and N is the Hill coefficient, an index of cooperativity. K1/2 and N for cAMP were 36±5 μM, 10±2 μM, 1.0±0.3 μM, and […] for WT, E583M, C460/E583M, and Δ61-90/C460W/E583M channels, respectively (See, Rich et al., J. Gen. Physiol. [2001], supra).\nThe cyclic nucleotide sensitivity of the C460W/E583M CNG channel was assessed in excised, inside-out patches as known in the art (See, Rich et al. [2001], supra). K1/2 and N were 1.1±0.3 μM and 2.1±0.4 at +50 mV; and 1.0±0.3 μM and 2.0 ±0.3 at −50 mV (n=11). With these values, the cAMP concentration could be calculated from currents measured in perforated patch experiments (Rich et al. Proc. Natl. Acad. Sci. [2001], supra)."}},
  "note": "Changes are numbered by the printed parent chain. Names and notes keep the numbering of the source.",
  "data": [
    {"molecule": "C[C@@H]1C(=O)NC2=Nc3cccc(Cl)c3CN21", "note": "[Quazinone]", "values": [
      {"measurement": "d(ΔF/F0)/dt", "setting": "[1]; basal cAMP, inhibitor concentration (μM)", "value": 0, "unit": "s⁻¹"},
      {"measurement": "IC50", "setting": "PDE III", "value": 600, "unit": "nM"}
    ]},
    {"molecule": "vasoactive intestinal peptide [VIP]", "values": [
      {"measurement": "cAMP accumulation and Ca2+ influx after AC stimulation", "setting": "[1]; 10 μM forskolin or 100 nM VIP after IBMX or vehicle", "value": "caused additional cAMP accumulation and Ca^2+ influx"}
    ]},
    {"molecule": "C=C[C@@]1(C)CC(=O)[C@]2(O)[C@@]3(C)[C@@H](O)CCC(C)(C)[C@@H]3[C@H](O)[C@H](OC(C)=O)[C@@]2(C)O1", "note": "[forskolin]", "values": [
      {"measurement": "forskolin-induced increase in cAMP concentration averaged throughout the accessible cell volume", "setting": "[2]", "value": "1 to 2", "unit": "µM"},
      {"measurement": "forskolin-induced increase in cAMP concentration measured using CNG channels", "setting": "[2]; local, near plasma membrane", "value": "> 25", "unit": "µM"}
    ]},
    {"molecule": "B1", "values": [
      {"measurement": "Imax^cGMP/Imax^cAMP", "setting": "[3]; +50 mV", "value": "0.40 ± 0.10"},
      {"measurement": "Imax^cGMP/Imax^cAMP", "setting": "[3]; −50 mV", "value": "0.35 ± 0.16"},
      {"measurement": "current elicited by saturating cGMP as % of the current elicited by saturating cAMP", "setting": "[3]; excised patches", "value": "~40", "unit": "%"},
      {"measurement": "forskolin concentration at which delay and rate of Ca2+ influx saturated", "setting": "[2]; 100 μM IBMX, forskolin 0-50 μM", "value": 20, "unit": "µM"}
    ]},
    {"molecule": "B2", "values": [
      {"measurement": "Imax^cGMP/Imax^cAMP", "setting": "[3]; +50 mV", "value": 1.0},
      {"measurement": "Imax^cGMP/Imax^cAMP", "setting": "[3]; −50 mV", "value": 1.0}
    ]}
  ]
}
